T1: VEGF (Homo sapiens, UniProt P15692)
T1 construct: purchased R&D Systems
T1 sequence (P15692 27-191 isoform P15692-4): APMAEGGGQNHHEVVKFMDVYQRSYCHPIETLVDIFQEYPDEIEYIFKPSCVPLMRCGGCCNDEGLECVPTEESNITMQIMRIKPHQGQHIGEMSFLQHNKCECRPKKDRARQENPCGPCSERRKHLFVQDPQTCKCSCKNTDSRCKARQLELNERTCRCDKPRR


Experiments:
[1] = test system: cancer cells; experiment: In vitro proliferation of cancer cells stimulated by growth factors (Table 8); assay type: cell-based
Experimental: (§1) For the proliferation assay, cells except for HUVEC were seeded at a density of 1,000 to 6,000 in 96 wells in an assay buffer of DMEM/F12 plus 0.2% BSA and 10 ug/ml transferrin. Chemical inhibitors were added after 16-20 hours after plating; IGF-1 or other growth factors or test chimeras in assay buffer were added at the time of plating or 16-20 hours after plating. 5,000 HUVEC ells were plated in poly-L-lysine coated 96 wells in M199 with 1%/FBS and HEPES. After 3 to 4 days of culture, growth was determined by incubating cells with Alamar blue for 4 to 6 hours and then the fluorescence (RFU) at 544/590 nm was read. For long term proliferation assays, cells were plated in the growth media with 5% or 10% FBS at densities of 500 to 10,000 cells per cm^2 growth area and grown for 7 to 21 days. Inhibitors and effectors were added 1-4 days after plating. Cells were exposed to cisplatin or gemcitabine for two days. Medium was renewed twice weekly. At completion, cells were fixed and then stained with Giemsa.
(§2) The BP3-fc construct inhibited the proliferation of cancer cells that had been stimulated by IGF-1, IGF-2, neuregulin, HGF, and bFGF.

[2] = test system: fibroblasts; experiment: Proliferation induced by PDGF BB in fibroblasts (Table 8); assay type: cell-based
Experimental: as §1, §2

[3] = molecular target: T1, VEGF; experiment: In vitro proliferation stimulated by VEGF (Table 8); assay type: cell-based
Experimental: as §1
The BP3-VEGF-trap-fc (including the IGFBP3 domains, the VEGFR1 domain 2 and VEGFR2 domain 3 (VEGF-trap (22)), and human immunoglobulin Fc region) broadened the binding to include VEGF-A, VEGF-B, and placental growth factor (PIGF). This BP3-VEGF-trap chimera could inhibit the proliferation stimulated by IGF-1, IGF-2, neuregulin, PDGF-BB, HGF, bFGF, VEGF-A, and PIGF (see, Table 8).

[4] = molecular target: T1, VEGF; experiment: Biacore binding to VEGF; details: Table 5; the kd is very low and difficult to measure
Experimental: (§3) Biacore binding was performed at David Myszka's laboratory at the University of Utah or at the Genomic Research Center at Academia Sinica. Surfaces of binding protein chimera were made via chemical immobilization on a CM4 chip using standard amine coupling chemistry. […] Excess surface carboxyl activated sites on all four flow cells was blocked using the doubly positively charged species ethylenediamine. Binding experiments (but not immobilizations) in HBS-P (10 mM HEPES pH 7.4, 150 mM NaCl, 0.05% P20), The HBS-P was supplemented with BSA at 0.2 mg/mL, or HBS-P was supplemented with 500 mM NaCl (650 mM NaCl, final concentration). Analytes were also reconstituted in the corresponding buffer. All experiments were performed at 25° C. 1/150 dilutions of phosphoric acid were used to regenerate IGFBP3-Fc surfaces and a sequence of 3 M MgCl2 followed by 5 M GuCl was used to regenerate surfaces immobilized with growth factor. Dissociation constants reported below used immobilized binding protein unless noted. Differences between binding constants may be expected between growth factor immobilization and chimera immobilization.

[5] = molecular target: T2, TGF-α (Homo sapiens, UniProt P01135); experiment: Biacore binding to TGF-α; details: Table 5
T2 construct: purchased R&D Sciences or SinoBiologicals
T2 sequence (P01135 40-89 limits assumed): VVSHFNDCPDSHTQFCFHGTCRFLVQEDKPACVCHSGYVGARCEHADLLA
Experimental: as §3

[6] = test system: MCF-7 breast cancer cells; experiment: MCF-7 proliferation assay; assay type: cell-based; details: FIG. 5
Experimental: (§4) MCF-7 cells (a breast cancer cell line) were maintained in MEM (GIBCO) plus insulin and NEAA and 10% FBS (Hyclone).
as §1
We next examined the effect of 56662 (BP3/Fc) on the proliferation induced by growth factors that interacted with the IGFBP3. The proliferation of MCF-7 breast cancer cells was induced in serum-free medium by individual growth factors like IGF-1, IGF-2, EGF, TGF-a, Nrgbx, b-FGF, and amphiregulin (FIG. 1).

[7] = test system: hep3B cells; experiment: hep3B proliferation assay; assay type: cell-based, human
In short: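 Cells seeded at 1,000 to 6,000 per well in DMEM/F12 with 0.2% BSA and 10 ug/ml transferrin. Inhibitors added 16-20 h after plating; IGF-1 or other growth factors at plating or 16-20 h later. After 3 to 4 days, growth read by Alamar blue fluorescence at 544/590 nm after 4 to 6 h.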

[8] = test system: HUVEC cells; experiment: HUVEC proliferation assay; assay type: cell-based
Experimental: as §4, §1
Growth factor synergism can also be observed in the proliferation of HUVEC cells.

inhibition of proliferation stimulated by VEGF [3] | Dissociation Constants, VEGF [4] | Dissociation Constants, TGF-α [5] | Molecule | inhibition of proliferation stimulated by HGF [1] | inhibition of proliferation stimulated by IGF-1 [1] | inhibition of proliferation stimulated by IGF-2 [1] | inhibition of proliferation stimulated by bFGF [1] | inhibition of proliferation stimulated by nrgbx [1] | inhibition of proliferation stimulated by PDGF BB [2] | inhibition of IGF-1-induced proliferation of MCF-7, compared to 56662 and chimera B [6] | increase of inhibitory activity of erlotinib ([7]; 100 nM chimera h3t33Fc, hep3B) | inhibition of hep3B cells treated with erlotinib ([7]; combination with erlotinib, FIG. 15, FIG. 16A) | inhibition of VEGF-induced proliferation of HUVEC cells ([8]; FIG. 6, FIG. 13) | inhibition of HUVEC proliferation induced by IGF, bFGF, HGF or a combination ([8]; FIG. 13)
inh |  |  | VEGF-trap: the VEGFR1 domain 2 and VEGFR2 domain 3 (VEGF-trap (22)) [reference compound] | no | no | no | no | no | no |  |  |  |  | 
 | no binding | no binding | h3t33fc: IGFBP3 with IGFBP3 linker deletion 1-Fc, SEQ ID NO: 8 (protein) MSEVPVARVWLVLLLLTVQVGVTAGGASSAGLGPVVRCEPCDARALAQCAPPPAVCAELVREPGCGCCLTCALSEGQPCGIYTERCGSGLRCQPSPDEARPLQALLDGRGLCVNASAVSKGHAKDSQRYKVDYESQSTDTQNFSSESKRETEYGPCRREMEDTLNHLKFLNVLSPRGVHIPNCDKKGFYKKKQCRPSKGRKRGFCWCVDKYGQPLPGYTTKGKEDVHCYSMQSKVECPPCPAPPVAGPSVFLFPPKPKDQLMISRTPEVTCVVVDVSHEDPEVKFNWYVDGVEVHNAKTKPREEQYNSTYRVVSVLTVLHQDWLNGKEYKCKVSNKGLPSSIEKTISKAKGQPREPQVYTLPPSREEMTKNQVSLTCLVKGFYPSDIAVEWESNGQPENNYKTTPPVLDSDGSFFLYSKLTVDKSRWQQGNVFSCSVMHEGLHNHYTQKSLSLSPGK |  |  |  |  |  |  | a smaller EC50 and a higher maximal inhibition | about 100 fold | synergistically inhibited | did not inhibit | inhibited

Reference: patent US11254722B2, “Recombinant proteins and uses thereof” (ACADEMIA SINICA, priority 2017, dated 2022)
